{
  "source": "patent US20250222105A1",
  "about": "(University of Texas, published 2025)",
  "binders": {"B1": {"name": "anti-ROR1 monoclonal antibody A97 (antibody, V domains shown)", "VH": "EVQLQQSGPELEKPGASVKISCKASGYSFIGYSMNWVRQSDGKSLEWIGNIDPYYGGTSYNLKFKGKATLTVDKSSSTAYMQLKSLTSEDSAVYYCARLGRGYFDYWGQGTTLTVSS", "VL": "DIVLTQSPATLSVTPGDSVSLSCRASQSITNNLHWYQQKSHESPRLLIKSASQSISGIPSRFSGSGSGTDFTLSINSVETEDFGMYFCQQSNSWPHTFGGGTKLEIK", "notes": "Mouse monoclonal antibody from hybridoma"}, "B2": {"name": "anti-ROR1 monoclonal antibody A148 (antibody, V domains shown)", "VH": "DVQLQESGPGLVKPSQSLSLTCSVSGYSITSGYYWNWIRQFPGNKLEWMGYISNDGSNKYKPSLKNRISITRDTSKNQFFLKLNSVTTEDTATYYCARFPLINYDPWLAYWGQGTLVTVSA", "VL": "DVLMTQTPLSLPVSLGDQASISCRSSQNVVHRNGNTYLEWYLQKPGQSPKLLIYKVSNRFSGVPDRFSGSGSGTDFTLKISRVEAEDLGVYYCFQGSHVPWTFGGGTKLEIK", "notes": "as for B1"}, "B3": {"name": "anti-ROR1 monoclonal antibody A130 (antibody, V domains shown)", "VH": "B2 VH with S25T, S53R, K59N, K61N, L108F", "VL": "ETTVTQSPASLSVATGEKVTIRCITSTDIDDDMNWYQQKPGEPPKLLISEANTLRPGVPSRFSSSGYGTDFVFTIENTLSEDVADYYCLQSYNMPLTFGAGTTLELK", "notes": "as for B1"}, "B4": {"name": "anti-ROR1 monoclonal antibody A142 (antibody, V domains shown)", "VH": "EVQLQQSGPDLVKPGASVKISCKASGYSFTGYYMHWVKQSHGKSLEWIGRVYPNNGGTSYNQKFKGKAILTVDKSSTTAYMELRSLTSEDSAVYYCALIHYYGFYSMDYWGQGTSVTVSS", "VL": "B2 VL with N28S, V29I, R32S, K112N", "notes": "as for B1"}, "B5": {"name": "anti-ROR1 monoclonal antibody A129 (antibody, V domains shown)", "VH": "B2 VH with S25T, S53R, K59N, K61N, L108F", "VL": "B2 VL with T7A", "notes": "as for B1"}, "B6": {"name": "anti-ROR1 monoclonal antibody A140 (antibody, V domains shown)", "VH": "B2 VH with S57N, T88A", "VL": "B2 VL with N28S, V29I, R32S, K112N", "notes": "as for B1"}, "B7": {"name": "anti-ROR1 monoclonal antibody A89 (antibody, V domains shown)", "VH": "B2 VH with N36S, N84K", "VL": "B2 VL with N28S, V29I, R32S, K112N", "notes": "Mouse monoclonal antibody from hybridoma (BALB/c mice immunized with ROR1-expressing L cells)"}},
  "note": "Substitutions are numbered along the chain they refer to.",
  "data": [
    {"molecular_target": "T1, human receptor tyrosine kinase like orphan receptor 1 (ROR1) expressed on cells (human, UniProt Q01973 30-937)", "T1 construct": "whole, on cells; also called human ROR1; ROR1-L cells", "experiment": "cell ELISA and flow cytometry on L cells transfected with human ROR1; also positive staining of ROR1+ lymphoma lines Jeko-1, SP-53, CA46", "values": [
      {"binder": "B1", "binding result": "binds"},
      {"binder": "B2", "binding result": "binds"},
      {"binder": "B3", "binding result": "binds"},
      {"binder": "B4", "binding result": "binds"},
      {"binder": "B5", "binding result": "binds"},
      {"binder": "B6", "binding result": "binds"},
      {"binder": "B7", "binding result": "binds"}
    ]}
  ]
}
